Results published in article PMC12238353 (Scientific Reports, 2025).

Legend:
[1] = molecular target: T1, Phl p 7 (antigen of HAPPID1) on an SA chip (Phleum pratense (common timothy), UniProt O82040); experiment: SPR; IgD (HAPPID1) captured by its antigen Phl p 7 on an SA chip; 25 nM aδNb408 or aδNb408-Nb pairs flowed over; 25 °C, running buffer with 5 mM CaCl2; settings: both partners purified
T1 construct: Held on a streptavidin chip; also called SA-Phl p 7 chip

[2] = molecular target: His-tagged IgD (SpyTagged HAPPID1: human anti-Phl p 7 IgD 102.1F10 with SpyTag003 and His6-tag on the heavy chain) (human) (UniProt P01880); experiment: SPR; His-tagged IgD (100 nM) captured on an anti-His chip (CM5); two-fold dilution series of TEV-cleaved Nbs, 200 nM to 1.6 nM, flowed over; Biacore T200, 25 °C, 10 mM HEPES pH 7.4, 150 mM NaCl, 0.05% P20; koff from mono- or biphasic decay, kon from kobs against concentration, KD = koff/kon
[3] = molecular target: IgD on Namalwa B cells (membrane-bound IgD) (human (endogenous in Namalwa)) (UniProt P01880); experiment: flow cytometry on cells; Namalwa cells incubated with 1 µM AF488-labeled Nb:Catcher fusion in PBS pH 7.3, 1% BSA, 0.1% NaN3, 1 h at 4 °C (1 µM, 500 nM and 250 nM for titration); median fluorescence intensity
Chain of IgD on Namalwa B cells (membrane-bound IgD) (human (endogenous in Namalwa)) (P01880 whole entry, looked up, the tested form may be a part): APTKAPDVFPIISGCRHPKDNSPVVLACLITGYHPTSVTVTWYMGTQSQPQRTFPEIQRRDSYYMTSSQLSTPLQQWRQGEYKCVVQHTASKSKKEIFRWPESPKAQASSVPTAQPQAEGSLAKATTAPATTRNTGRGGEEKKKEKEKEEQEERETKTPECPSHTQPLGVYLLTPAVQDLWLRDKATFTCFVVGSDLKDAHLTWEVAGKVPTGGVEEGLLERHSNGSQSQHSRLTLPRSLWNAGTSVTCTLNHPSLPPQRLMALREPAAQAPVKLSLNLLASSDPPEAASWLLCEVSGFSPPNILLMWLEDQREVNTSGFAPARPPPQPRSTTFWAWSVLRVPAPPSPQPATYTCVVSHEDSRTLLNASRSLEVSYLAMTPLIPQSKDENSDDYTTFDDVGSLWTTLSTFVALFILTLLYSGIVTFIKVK

[4] = molecular target: IgD-Fc (Fc region of human IgD, SpyTagged) (human); experiment: SEC; complexes of Nb and IgD-Fc with IgD-Fc at 2 µM, incubated overnight at 4 °C; Superdex 200 Increase 10/300 GL in HBS-az at 10 °C

T1 sequence (O82040 whole entry): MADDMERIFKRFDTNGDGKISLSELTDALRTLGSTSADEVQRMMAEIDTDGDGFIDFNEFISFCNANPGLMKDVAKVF

B1: human anti-Phl p 7 IgD 102.1F10 (HAPPID1) (antibody, V domains shown)
VH: QVQLVQSGAEVRNPGASVKVSCKASGYTFTSYAIHWVRQAPGHRLEWVGRINTDNGNTKYSQKFHGRVALSRDTSASTTYMDLSSLNSEDTAVYYCARAFYYSSGVMFDSWGQGALVTVSS
VL: QSALTQPPSVSGAPGQRVSISCTGGSSNFGAGYDVHWYQQLPATAPKLLIYGNNNRPSGVPDRFSGSKSGTSASLAITGLQAEDEGDYFCQSFDTSLSGWIFGGGTKLTVL
notes: heavy-chain variable domain of the human anti-Phl p 7 antibody 102.1F10; pVITRO1-HAPPID1 at Addgene; human immunoglobulin heavy constant delta, secreted form; UniProt P01880-1 is printed for the IgD-Fc used in this study; light chain of 102.1F10; also called full-length IgD; source: stably transfected FreeStyle 293-F cells; copies: 2 + 2
B1: binds [1].

B2: anti-IgD Nb 107 (aδNb107), TEV-cleaved (VHH)
VHH: QVQLQESGGGLVQAGASLRLSCTASERTFSPYAMGWFRQAPGREREVIASIFWTGGNTGYADSVKGRFTISRDTAKNTVYLQMSNLKPEDTAVYYCGARTSASAPIYGLWGQGTQVTVSS
B2 showed a KD1 [2] of 3.2 nM, a KD2 [2] of 22 nM and a koff1 [2] of 0.00066 s⁻¹. It also gave a koff2 [2] of 0.0046 s⁻¹ and a kon [2] of 210000 M⁻¹ s⁻¹.

B3: AF488-labeled monovalent aδNb107 (SpyTagged aδNb107 reacted with AF488-labeled SpyCatcher003) (VHH)
VHH: QVQLQESGGGLVQAGASLRLSCTASERTFSPYAMGWFRQAPGREREVIASIFWTGGNTGYADSVKGRFTISRDTAKNTVYLQMSNLKPEDTAVYYCGARTSASAPIYGLWGQGTQVTVSS
B3 showed an MFI [3] of 662.

B4: His-tagged anti-IgD Nb 107 (aδNb107) (VHH)
VHH: QVQLQESGGGLVQAGASLRLSCTASERTFSPYAMGWFRQAPGREREVIASIFWTGGNTGYADSVKGRFTISRDTAKNTVYLQMSNLKPEDTAVYYCGARTSASAPIYGLWGQGTQVTVSS
For B4, the stoichiometry N [4] was 2 Nb:IgD.

B5: anti-IgD Nb 571 (aδNb571), TEV-cleaved (VHH)
VHH: QVQLQESGGGLVQPGGSLRLSCAASGTPFSASVMAWYRQAPGKERVWVATITSDSMTYYADSVNGRFTISRDNAKSTVYLQMNSLKPEDTAAYICRHAASASWGQGTQVTVSS
With B5 the Kd [2] was 0.66 nM, the koff [2] was 0.0012 s⁻¹ and the kon [2] was 1.8e+06 M⁻¹ s⁻¹.

B6: His-tagged anti-IgD Nb 571 (aδNb571) (VHH)
VHH: QVQLQESGGGLVQPGGSLRLSCAASGTPFSASVMAWYRQAPGKERVWVATITSDSMTYYADSVNGRFTISRDNAKSTVYLQMNSLKPEDTAAYICRHAASASWGQGTQVTVSS
With B6 the stoichiometry N [4] was 1 Nb:IgD.

B7: AF488-labeled monovalent aδNb571 (SpyTagged aδNb571 reacted with AF488-labeled SpyCatcher003) (VHH)
VHH: QVQLQESGGGLVQPGGSLRLSCAASGTPFSASVMAWYRQAPGKERVWVATITSDSMTYYADSVNGRFTISRDNAKSTVYLQMNSLKPEDTAAYICRHAASASWGQGTQVTVSS
B7 gave an MFI [3] of 921.

B8: anti-IgD Nb 408 (aδNb408), TEV-cleaved (VHH)
VHH: QVQLQESGGGLVQAGDSLRLSCVASGRSISNDAMAWFRQAPGKEREFVAAITWRYSNTHYSDSVKDRFTISRDNAKNTVYLQMNSLKPEDTADYYCAADRRGTGASSYSRDYDYWGQGTQVTVSS
Work on B8 yielded a KD1 [2] of 0.89 nM, a KD2 [2] of 5.2 nM and a koff1 [2] of 0.00074 s⁻¹. The koff2 [2] was 0.0043 s⁻¹ and the kon [2] was 820000 M⁻¹ s⁻¹.

B9: AF488-labeled monovalent aδNb408 (SpyTagged aδNb408 reacted with AF488-labeled SpyCatcher003) (VHH)
VHH: QVQLQESGGGLVQAGDSLRLSCVASGRSISNDAMAWFRQAPGKEREFVAAITWRYSNTHYSDSVKDRFTISRDNAKNTVYLQMNSLKPEDTADYYCAADRRGTGASSYSRDYDYWGQGTQVTVSS
B9 was tested, and the MFI [3] was 1340.

B10: His-tagged anti-IgD Nb 408 (aδNb408) (VHH)
VHH: QVQLQESGGGLVQAGDSLRLSCVASGRSISNDAMAWFRQAPGKEREFVAAITWRYSNTHYSDSVKDRFTISRDNAKNTVYLQMNSLKPEDTADYYCAADRRGTGASSYSRDYDYWGQGTQVTVSS
In the case of B10, the stoichiometry N [4] is reported as 2 Nb:IgD.

B11: His-tagged anti-IgD Nb 367 (aδNb367) (VHH)
VHH: QVQLQESGGGLVQPGGSLRLACAASGFSLSTYTMSWVRQSPGKGLEWVSTITSDGGWTSYRDSVKGRFTISRDNAKNTLYLQMNSLNPEDTAVYYCRRGVGVVRGERPGGQGTQVTVSS
With B11 the stoichiometry N [4] was 2 Nb:IgD.

B12: anti-IgD Nb 367 (aδNb367), TEV-cleaved (VHH)
VHH: QVQLQESGGGLVQPGGSLRLACAASGFSLSTYTMSWVRQSPGKGLEWVSTITSDGGWTSYRDSVKGRFTISRDNAKNTLYLQMNSLNPEDTAVYYCRRGVGVVRGERPGGQGTQVTVSS
Work on B12 yielded a Kd [2] of 2.4 nM, a koff [2] of 0.00047 s⁻¹ and a kon [2] of 200000 M⁻¹ s⁻¹.

B13: AF488-labeled monovalent aδNb367 (SpyTagged aδNb367 reacted with AF488-labeled SpyCatcher003) (VHH)
VHH: QVQLQESGGGLVQPGGSLRLACAASGFSLSTYTMSWVRQSPGKGLEWVSTITSDGGWTSYRDSVKGRFTISRDNAKNTLYLQMNSLNPEDTAVYYCRRGVGVVRGERPGGQGTQVTVSS
With B13 the MFI [3] was 1450.
